# Laboratory results taken from paper PMC4585563, “Small angle X-ray scattering studies of CTNNBL1 dimerization and CTNNBL1/CDC5L complex” (Scientific Reports, 2015).
# Changes are numbered by the printed parent chain. Names and notes keep the numbering of the source.
# B1: CDC5L^141-377 (domain or fragment, human, UniProt Q99459 141-377, looked up)
# chain: PIDMDEDELEMLSEARARLANTQGKKAKRKAREKQLEEARRLAALQKRRELRAAGIEIQKKRKRKRGVDYNAEIPFEKKPALGFYDTSEENYQALDADFRKLRQQDLDGELRSEKEGRDRKKDKQHLKRKKESDLPSAILQTSGVSEFTKKRSKLVLPAPQISDAELQEVVKVGQASEIARQTAEESGITNSASSTLLSEYNVTNNSVALRTPRTPASQDRILQEAQNLMALTNVDT
# notes: CDC5L of the human hPrp19/CDC5L complex, residues 141-377 of the N-terminal domain; holds NLS3 (residues 200-206: KKRKRKR); cloned into pET-30a(+); also called 6xHis-tagged CDC5L 141-377; source: E. coli, purified as CTNNBL1 with 300 mM NaCl in the buffers, without TEV protease
# B2: CDC5L^141-285 (domain or fragment, human, UniProt Q99459 141-285, looked up)
# chain: PIDMDEDELEMLSEARARLANTQGKKAKRKAREKQLEEARRLAALQKRRELRAAGIEIQKKRKRKRGVDYNAEIPFEKKPALGFYDTSEENYQALDADFRKLRQQDLDGELRSEKEGRDRKKDKQHLKRKKESDLPSAILQTSGV
# notes: CDC5L of the human hPrp19/CDC5L complex, residues 141-285; holds NLS3 (residues 200-206: KKRKRKR); cloned into pET-30a(+); also called 6xHis-tagged CDC5L 141-285; source: E. coli, purified as CTNNBL1 with 300 mM NaCl in the buffers, without TEV protease
# B3: CTNNBL1^L87R (domain or fragment, human, UniProt Q8WYA6 77-563, looked up)
# chain: LDESSVKKMIRTFEKRSYKNQELRIKFPDNPEKFMESELDLNDIIQEMHVVATMPDLYHLLVELNAVQSLLGLLGHDNTDVSIAVVDLLQELTDIDTLHESEEGAEVLIDALVDGQVVALLVQNLERLDESVKEEADGVHNTLAIVENMAEFRPEMCTEGAQQGLLQWLLKRLKAKMPFDANKLYCSEVLAILLQDNDENRELLGELDGIDVLLQQLSVFKRHNPSTAEEQEMMENLFDSLCSCLMLSSNRERFLKGEGLQLMNLMLREKKISRSSALKVLDHAMIGPEGTDNCHKFVDILGLRTIFPLFMKSPRKIKKVGTTEKEHEEHVCSILASLLRNLRGQQRTRLLNKFTENDSEKVDRLMELHFKYLGAMQVADKKIEGEKHDMVRRGEIIDNDTEEEFYLRRLDAGLFVLQHICYIMAEICNANVPQIRQRVHQILNMRGSSIKIVRHIIKEYAENIGDGRSPEFRENEQKRILGLLENF
# notes: human CTNNBL1, residues 77-563, point mutant made by site-directed mutagenesis; source: E. coli, purified as wild-type CTNNBL1; not shown: 6xHis, N-terminal, cleaved; VHb (bacterial hemoglobin), N-terminal, cleaved
# B4: CTNNBL1^Q192R (domain or fragment, human, UniProt Q8WYA6 77-563, looked up)
# chain: B3 chain with R11L, Q116R
# notes: as for B3
# B5: CTNNBL1^G148R/Q192R/Q199R (domain or fragment, human, UniProt Q8WYA6 77-563, looked up)
# chain: B3 chain with R11L, G72R, Q116R, Q123R
# notes: human CTNNBL1, residues 77-563, triple-point mutant (ARM I and ARM II); also called ARM I and ARM II mutant; source: E. coli, purified as wild-type CTNNBL1; not shown: 6xHis, N-terminal, cleaved; VHb (bacterial hemoglobin), N-terminal, cleaved
# B6: CTNNBL1^Q238A/E278A/E282A (domain or fragment, human, UniProt Q8WYA6 77-563, looked up)
# chain: B3 chain with R11L, Q162A, E202A, E206A
# notes: human CTNNBL1, residues 77-563, triple-point mutant (ARM III and ARM IV); also called Arm III and Arm IV mutant; source: E. coli, purified as wild-type CTNNBL1; not shown: 6xHis, N-terminal, cleaved; VHb (bacterial hemoglobin), N-terminal, cleaved
# B7: CTNNBL1^E278A (domain or fragment, human, UniProt Q8WYA6 77-563, looked up)
# chain: B3 chain with R11L, E202A
# notes: as for B3
# B8: CTNNBL1^I101R (domain or fragment, human, UniProt Q8WYA6 77-563, looked up)
# chain: B3 chain with R11L, I25R
# notes: as for B3
# B9: CTNNBL1^Q199R (domain or fragment, human, UniProt Q8WYA6 77-563, looked up)
# chain: B3 chain with R11L, Q123R
# notes: as for B3
# B10: CTNNBL1^E282A (domain or fragment, human, UniProt Q8WYA6 77-563, looked up)
# chain: B3 chain with R11L, E206A
# notes: as for B3
# B11: CTNNBL1^L87R/I101R (domain or fragment, human, UniProt Q8WYA6 77-563, looked up)
# chain: B3 chain with I25R
# notes: human CTNNBL1, residues 77-563, double-point mutant (capping region); also called capping region mutant; source: E. coli, purified as wild-type CTNNBL1; not shown: 6xHis, N-terminal, cleaved; VHb (bacterial hemoglobin), N-terminal, cleaved
# B12: CTNNBL1^G148R (domain or fragment, human, UniProt Q8WYA6 77-563, looked up)
# chain: B3 chain with R11L, G72R
# notes: as for B3
# B13: CTNNBL1 (residues 77-563), wild type (domain or fragment, human, UniProt Q8WYA6 77-563, looked up)
# chain: B3 chain with R11L
# notes: human CTNNBL1, residues 77-563, amplified from a human cDNA library; Dimer by SAXS at 0-200 mM NaCl and by SEC at 150 mM NaCl; monomer at 300-400 mM NaCl; also called native CTNNBL1; wild-type CTNNBL1; source: E. coli BL21(DE3)-T1R, purified (Ni-NTA, TEV protease, Ni-NTA, Superdex200); not shown: 6xHis, N-terminal, cleaved; VHb (bacterial hemoglobin), N-terminal, cleaved
# B14: CDC5L^197-285 (domain or fragment, human, UniProt Q99459 197-285, looked up)
# chain: EIQKKRKRKRGVDYNAEIPFEKKPALGFYDTSEENYQALDADFRKLRQQDLDGELRSEKEGRDRKKDKQHLKRKKESDLPSAILQTSGV
# notes: CDC5L of the human hPrp19/CDC5L complex, residues 197-285; holds NLS3 (residues 200-206: KKRKRKR); cloned into pPosKJ; pPosKJ adds 6xHis and VHb, both removed only by TEV protease; the His-tagged proteins were made without TEV, so VHb should still be on the chain in the pull-down; also called 6xHis-tagged CDC5L 197-285; source: E. coli, purified as CTNNBL1 with 300 mM NaCl in the buffers, without …
# B15: CDC5L^141-235 (domain or fragment, human, UniProt Q99459 141-235, looked up)
# chain: PIDMDEDELEMLSEARARLANTQGKKAKRKAREKQLEEARRLAALQKRRELRAAGIEIQKKRKRKRGVDYNAEIPFEKKPALGFYDTSEENYQAL
# notes: CDC5L of the human hPrp19/CDC5L complex, residues 141-235; holds NLS3 (residues 200-206: KKRKRKR); cloned into pPosKJ; pPosKJ adds 6xHis and VHb, both removed only by TEV protease; the His-tagged proteins were made without TEV, so VHb should still be on the chain in the pull-down; also called 6xHis-tagged CDC5L 141-235; source: E. coli, purified as CTNNBL1 with 300 mM NaCl in the buffers, without …
# Target: the molecule itself
# Assay: SEC; CDC5L truncations alone; data not shown
# Settings: not given
row,Binder,stoichiometry N
1,B1,2
2,B2,2

# Target: the molecule itself
# Assay: SEC; Superdex 200 10/300, 500 μl of 2 mg/ml protein, 0.5 ml/min, 40 mM Tris-HCl pH 8.0, 150 mM NaCl; molecular weight from calibration standards
# Settings: not given
row,Binder,stoichiometry N
1,B3,2
2,B4,2
3,B5,2
4,B6,2
5,B7,2
6,B8,2
7,B9,2
8,B10,2
9,B11,2
10,B12,2

# Target: the molecule itself
# Assay: SAXS; CTNNBL1 alone in solution, 200 mM NaCl, 4 °C, 1.0-5.0 mg/ml; oligomeric state from molecular mass (absolute I(0)), Guinier and p(r) analysis
# Settings: not given
row,Binder,stoichiometry N
1,B13,2

# Target: the molecule itself
# Assay: SAXS; CTNNBL1 alone in solution, 100 mM NaCl, 4 °C, 1.0-5.0 mg/ml; oligomeric state from molecular mass (absolute I(0)), Guinier and p(r) analysis
# Settings: not given
row,Binder,stoichiometry N
1,B13,2

# Target: the molecule itself
# Assay: SAXS; CTNNBL1 alone in solution, 0 mM NaCl, 4 °C, 1.0-5.0 mg/ml; oligomeric state from molecular mass (absolute I(0)), Guinier and p(r) analysis
# Settings: not given
row,Binder,stoichiometry N
1,B13,2

# Target: B13
# Assay: pull-down; 6xHis-tagged CDC5L truncations mixed with untagged CTNNBL1 in 50 mM Tris-HCl pH 8.0, 300 mM NaCl, dialysed against 50 mM Tris-HCl without NaCl at 4 °C overnight, loaded on Ni-NTA resin, washed with 10 mM imidazole, eluted with 300 mM imidazole, SDS-PAGE
# Settings: both partners purified
row,Binder,binding result
1,B1,binds
2,B2,binds
3,B14,binds
4,B15,binds
